In article PMC8794802:
Where a chain is given by its changes, count along the chain named.

How the values were obtained:
Pus7 D256A [1] = target: T1, Pus7 D256A (Saccharomyces cerevisiae, UniProt Q08647 1-676, D256A); test: stopped-flow fluorescence
T1 sequence: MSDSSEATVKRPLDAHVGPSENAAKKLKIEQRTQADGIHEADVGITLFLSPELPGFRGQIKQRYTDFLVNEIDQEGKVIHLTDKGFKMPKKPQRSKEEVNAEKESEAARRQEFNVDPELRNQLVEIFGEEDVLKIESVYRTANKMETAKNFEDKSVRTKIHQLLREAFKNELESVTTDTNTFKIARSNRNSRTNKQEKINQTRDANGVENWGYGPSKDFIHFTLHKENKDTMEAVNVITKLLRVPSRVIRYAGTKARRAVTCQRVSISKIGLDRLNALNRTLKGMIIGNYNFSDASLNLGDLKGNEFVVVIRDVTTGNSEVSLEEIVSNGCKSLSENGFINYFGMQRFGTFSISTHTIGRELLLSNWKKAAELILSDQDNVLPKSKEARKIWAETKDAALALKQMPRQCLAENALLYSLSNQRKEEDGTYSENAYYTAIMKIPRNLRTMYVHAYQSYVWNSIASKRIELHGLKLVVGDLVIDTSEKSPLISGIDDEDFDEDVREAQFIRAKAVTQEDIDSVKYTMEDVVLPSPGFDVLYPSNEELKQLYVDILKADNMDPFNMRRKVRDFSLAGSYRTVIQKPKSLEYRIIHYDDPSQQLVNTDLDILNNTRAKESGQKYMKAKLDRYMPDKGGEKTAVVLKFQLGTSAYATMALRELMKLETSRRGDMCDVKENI

Pus7 D256A [2] = target: T1, Pus7 D256A; test: EMSA
Pus1 = target: T2, Pus1 (Saccharomyces cerevisiae, UniProt Q12211 1-544); test: EMSA
T2 sequence: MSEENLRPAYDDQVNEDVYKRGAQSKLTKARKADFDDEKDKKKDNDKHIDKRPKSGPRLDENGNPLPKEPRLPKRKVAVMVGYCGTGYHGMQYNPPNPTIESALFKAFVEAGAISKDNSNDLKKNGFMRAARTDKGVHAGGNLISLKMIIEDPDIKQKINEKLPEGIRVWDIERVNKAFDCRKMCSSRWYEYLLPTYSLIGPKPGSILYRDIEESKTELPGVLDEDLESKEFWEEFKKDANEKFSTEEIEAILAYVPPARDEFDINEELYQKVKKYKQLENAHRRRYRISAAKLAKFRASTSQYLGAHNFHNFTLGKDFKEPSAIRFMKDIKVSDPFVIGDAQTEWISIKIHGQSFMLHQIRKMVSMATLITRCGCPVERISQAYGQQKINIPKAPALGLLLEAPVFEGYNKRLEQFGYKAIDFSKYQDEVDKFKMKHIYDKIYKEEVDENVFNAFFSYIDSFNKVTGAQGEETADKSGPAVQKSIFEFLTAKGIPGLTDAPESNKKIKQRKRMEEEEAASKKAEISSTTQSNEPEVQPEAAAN

Pus7 D256A/E71A = target: T3, Pus7 D256A/E71A (Saccharomyces cerevisiae, UniProt Q08647 1-676, E71A;D256A); test: EMSA
T3 sequence: T1 sequence with E71A

B1: CDC8 (cdc8-FL, 61 nt) (ssRNA)
RNA: GUCAAUCACGAUUGUAGACGUUACUAAUAAGGGCAUUCAGGAAGUUGAAGCGCUUAUUUGG
- Kd (Pus7 D256A [1]): ~85 nM
- Kd (Pus7 D256A [2]): 60 ± 15 nM
- binding result (Pus1): binds
- Kd (Pus7 D256A/E71A): 210 ± 50 nM
